{"source": "paper PMC5520056", "about": "“Cryo-EM structures of the ATP-bound Vps4^E233Q hexamer and its complex with Vta1 at near-atomic resolution” (Nature Communications, 2017)", "origin": "cited, not measured here", "target": "Vta1 VSL (Saccharomyces cerevisiae) (UniProt Q06263)", "sequence (Q06263 280-330)": "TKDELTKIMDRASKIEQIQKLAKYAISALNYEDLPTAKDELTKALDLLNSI"}
{"substance": "Vps4 β-domain (from UniProt P52917)", "values": [{"measurement": "Kd", "value": 85, "unit": "µM"}]}
